Values joined by “and” are separate entries in the source; they are usually repeats but may differ in a detail not shown here. Equal entries are not always repeated. “Also recorded” adds a separate entry of the source.
Key:
Rad9-pT peptide [1] = target: T1, Rad9-pT peptide (Saccharomyces cerevisiae, UniProt P14737); assay: Phage ELISA of phage-displayed FHA1 domains; assay type: binding, yeast; settings: M13 protein III fusion, DsbA signal sequence
T1 construct: host or cells: chemical synthesis
Experimental: To amplify the phage particles displaying the recombinant FHA1 variants, TG1 bacterial cells (5 mL; Stratagene) harboring the phagemid DNA were infected at mid-log (OD600nm=0.5-0.6) with M13K07 helper phage (New England Biolabs) at a multiplicity of infection (MOI) of 20 for 1 h at 37° C. at 150 rpm. Infected cells were centrifuged, and the pellet was resuspended in fresh Luria Bertani medium (LB: 10 g Tryptone, 5 g Yeast extract, and 10 g NaCl per liter) supplemented with 50 μg/mL carbenicillin and 50 μg/ml kanamycin, and phage were amplified overnight at 30° C. at 250 rpm. All of the phage ELISA steps were performed at room temperature. Biotinylated peptides (100 μL, 5 μg/mL) were immobilized on Nunc MaxiSorp flat-bottom 96 well plates (Thermo Fisher Scientific) via NeutrAvidin™ Biotin binding protein (100 μL, 10 μg/mL; Thermo Fisher Scientific) and blocked with 2% skim milk in 1×PBS (200 μL per well). After washing with Phosphate Buffered Saline (PBS: 0.14 M Sodium Chloride, 0.003 M Potassium Chloride, 0.002 M Potassium Phosphate, and 0.01 M Sodium Phosphate), the wells were incubated with the phage supernatant (100 μL of phage diluted 1:2 with PBS containing 0.1% Tween 20 (PBST)) for 1 h and washed three times with PBST. The binding phage were detected using anti-M13 antibody conjugated to horse radish peroxidase (HRP) (GE Healthcare) diluted 1:5000 with PBST. After washing away the unbound antibody, the chromogenic substrate for HRP; 2,2′-Azinobis (3-ethylbenzothiazoline-6-Sulfonic Acid) diammonium salt (Thermo Fisher Scientific), supplemented with hydrogen peroxide was added (100 μL per well), and the absorbance of the green colored complex was measured at 405 nm on POLARstar OPTIMA microtiter plate reader (BMG Labtech).

Rad9-pT peptide [2] = target: T1, Rad9-pT peptide; assay: ELISA of GST fusions of FHA1 domains; assay type: binding, yeast; settings: expressed in bacterial cytoplasm as GST fusion
Experimental: For production of FHA1-GST fusion protein, BL21 DE3 cells (10 mL; Stratagene) harboring the expression vector was grown overnight at 30° C. using the Overnight Express™ Autoinduction System 1 (Novagen). The next day, cells were lysed using BugBuster® 10× Protein Extraction Reagent (Novagen) following the manufacturer's instructions. Cell lysate (100 μL diluted 1:5 with PBST) was incubated with the biotinylated peptides as described above and detected using anti-GST antibody conjugated to HRP (diluted 1:10,000 with PBST; GE Healthcare).

[3] = target: T2, pT peptide (Rad 9-pT: SLEVpTEADATFYAKK) (Saccharomyces cerevisiae, UniProt P14737); assay: Isothermal titration calorimetry (ITC); assay type: binding, yeast; settings: in solution by ITC; FHA1 domain 35 μM in cell
T2 construct: host or cells: chemical synthesis
Experimental: A fixed amount (10 μL) of the pT peptide (Rad 9-pT: SLEVpTEADATFYAKK (SEQ ID NO:9); 500 μM) was injected from the syringe into the sample cell containing the FHA1 domain (35 μM). […] Each measurement was repeated three times.
The affinity of the G2 variant and the WT FHA1 domain to the pT peptide (SLEVpTEADATFYAKK) (SEQ ID NO:9) was determined by ITC (FIG. 12). The sample cell contained the purified FHA1 domains (35 μM) and the injection syringe was filled with the pT peptide (350 μM). […] The FHA1 domains bound to the pT peptide with a stoichiometry of 1:1, and the ITC graph was fitted by the single site binding model.

[4] = tested on: non-phosphorylated form of the same peptide; assay: FTS assay, Tm shift in the presence of the non-phosphorylated peptide; assay type: binding, yeast
Experimental: The FTS assay was performed on a MxPro-Mx3005P instrument (Stratagene) following the protocol described by Giuliani et al (Giuliani et al. (2008) Biochemistry 47, 13974-84). It is a real-time assay using the SYBR® Green experiment setting with dissociation curve. The default FRROX filter set was used with an excitation wavelength of 492 nm and emission wavelength of 610 nm. FHA1 domains diluted with PBS to 2× final concentration (i.e. 2 μM and 8 μM) were mixed with 10×SYPRO® Orange protein gel stain (Invitrogen; 5000× concentration in DMSO) to give a final dye concentration of 10×. Then, to the protein wells only, 10 μL of the dye+protein mixture was added along with 10 μL of 1×PBS buffer. In other wells, 10 μL of either the pT peptide or its non-phosphorylated form (diluted to 2× final concentration with PBS, i.e. 100 μM and 500 μM) was added to 10 μL of dye+protein mixture. […] The assay was performed in duplicate in 96 well white PCR plates (BIO-Rad) covered with optically clear Microseal® ‘B’ Film (Bio-Rad) and heated from 25° C. to 95° C. and the melting curve was obtained with fluorescence (R) values plotted on the Y-axis and increasing temperature (° C.) on the X-axis. […]
The Tm values of FHA1 variants were determined by FTS assay (Giuliani et al. (2008) Biochemistry 47, 13974-84). […]

[5] = target: T3, cognate pT peptide (Rad9-pT) (Saccharomyces cerevisiae, UniProt P14737); assay: FTS assay, Tm shift in the presence of the cognate pT peptide; assay type: binding, yeast
T3 construct: host or cells: chemical synthesis
Experimental: (§1) The FTS assay was performed on a MxPro-Mx3005P instrument (Stratagene) following the protocol described by Giuliani et al (Giuliani et al. (2008) Biochemistry 47, 13974-84). It is a real-time assay using the SYBR® Green experiment setting with dissociation curve. The default FRROX filter set was used with an excitation wavelength of 492 nm and emission wavelength of 610 nm. FHA1 domains diluted with PBS to 2× final concentration (i.e. 2 μM and 8 μM) were mixed with 10×SYPRO® Orange protein gel stain (Invitrogen; 5000× concentration in DMSO) to give a final dye concentration of 10×. Then, to the protein wells only, 10 μL of the dye+protein mixture was added along with 10 μL of 1×PBS buffer. In other wells, 10 μL of either the pT peptide or its non-phosphorylated form (diluted to 2× final concentration with PBS, i.e. 100 μM and 500 μM) was added to 10 μL of dye+protein mixture. The final reaction volume was 20 μL with final concentrations of 1 μM or 4 μM of FHA1 domains, 50 μM or 250 μM of pT and non-phosphorylated peptides and 5× final concentration of the SYPRO® Orange. The assay was performed in duplicate in 96 well white PCR plates (BIO-Rad) covered with optically clear Microseal® ‘B’ Film (Bio-Rad) and heated from 25° C. to 95° C. and the melting curve was obtained with fluorescence (R) values plotted on the Y-axis and increasing temperature (° C.) on the X-axis. The mid-point of the curve gives the melting temperature (Tm), which shifts to a higher temperature in the presence of the pT peptide.
(§2) The Tm values of FHA1 variants were determined by FTS assay (Giuliani et al. (2008) Biochemistry 47, 13974-84). A representative Tm curve for the G2 variant at 1 μM concentration is shown (solid squares), alone and in the presence of the pT peptide (FIG. 11). […] The Tm values of the thermally stable variants (along with WT and D2 variant) at 1 μM and 4 μM concentration, along with the Tm shift in the presence of two different concentrations (50 μM and 250 μM) of the pT peptide, are listed in Table S3.

[6] = Fluorescence-based thermal shift (FTS) assay, melting temperature; assay type: physicochemical; settings: for thermal stability compared with the starting D2 domain: isolated after selection with library heated to 50° C.; for Tm (° C.): mid-point of melting curve
Experimental: as §1
To evaluate the thermal stability of the D2 variant, phage particles displaying the D2 variant were heated at various temperatures (30° C., 37° C., 50° C., 60° C., 70° C., 80° C., and 95° C.) prior to incubation with the cognate pT peptide (Rad9-pT) and the non-phosphorylated form of the same peptide (Rad9-T). […] (FIG. 8). The D2 variant (purified six-his tagged protein) was mixed with SYPRO orange dye with or without the Rad9-pT-containing peptide and heated from 25° C. to 95° C. in a real-time PCR experiment known as the Fluorescence-based thermal shift (FTS) assay^36. In this assay, initially, the fluorescence of SYPRO orange dye is quenched in the aqueous environment of a folded protein, but as the protein starts to unfold upon heating, the dye interacts with the hydrophobic core of the protein and its fluorescence increases. Therefore, an increase in fluorescence of the dye is directly proportional to protein unfolding, until a temperature (referred to as Tm here) is reached at which the dye fluorescence decreases due to aggregation and precipitation of the protein. The melting temperature (Tm) of the D2 variant was determined by fluorescence-based thermal shift (FTS) assay to be approximately 5° C. lower than the Tm of the WT FHA1 domain. To improve the thermal stability of the D2 variant, affinity selection was carried out by heating the phage library displaying D2 variants at 50° C. prior to incubation with the pT peptide ligand to favor the isolation of variants that remained folded and functional above 50° C.
as §2
The Tm (temperature at which 50% of the protein is unfolded) of the protein domain variants was determined by a fluorescence-based thermal shift assay (Giuliani et al. (2008) Biochemistry 47, 13974-84). The proteins were mixed with SYPRO orange dye, and heated from 25° C. to 95° C. on a real-time thermocycler. […]

[7] = 250 μM pT peptide, protein 1 μM
[8] = 250 μM pT peptide, protein 4 μM

Molecule | binding to Rad9-pT peptide when phage-displayed (Rad9-pT peptide [1]) | binding of GST fusion to Rad9-pT peptide (Rad9-pT peptide [2]) | Kd [3] | shift in the Tm [4] | Tm shift (° C.) in the presence of pT peptide ([5]; 50 μM pT peptide, protein 1 μM) [°C] | Tm shift (° C.) in the presence of pT peptide ([5]; 50 μM pT peptide, protein 4 μM) [°C] | Tm shift (° C.) in the presence of pT peptide [5, 7] [°C] | Tm shift (° C.) in the presence of pT peptide [5, 8] [°C] | thermal stability compared with the starting D2 domain [6] | Tm (° C.) ([6]; protein concentration 1 μM) [°C] | Tm (° C.) ([6]; protein concentration 4 μM) [°C]
3C-3S: FHA1 domain variant with three cysteines mutated to serine (C34S, C38S, C154S) (protein, left off: a dimerising Fc or GST; large carriers; small tags and cut ends) MENITQPTQQSTQATQRFLIEKFSQEQIGENIVSRVISTTGQIPIRDLSADISQVLKEKRSIKKVWTFGRNPACDYHLGNISRLSNKHFQILLGEDGNLLLNDISTNGTWLNGQKVEKNSNQLLSQGDEITVGVGVESDILSLVIFINDKFKQSLEQNKVDRIRSNLKNT | did not bind; also recorded: remained non-functional | bound specifically; also recorded: showed specific binding |  |  |  |  |  |  |  |  | 
4C-4S: FHA1 variant with all four cysteines mutated to serines (protein, left off: a dimerising Fc or GST; large carriers; small tags and cut ends, FHA1 variant with all four cysteines mutated to serines) MENITQPTQQSTQATQRFLIEKFSQEQIGENIVSRVISTTGQIPIRDLSADISQVLKEKRSIKKVWTFGRNPASDYHLGNISRLSNKHFQILLGEDGNLLLNDISTNGTWLNGQKVEKNSNQLLSQGDEITVGVGVESDILSLVIFINDKFKQSLEQNKVDRIRSNLKNT | did not bind; also recorded: remained non-functional | bound specifically; also recorded: showed specific binding |  |  |  |  |  |  |  |  | 
G2: thermally stable FHA1 variant of D2, mutations T15A, L48F, N121Y (protein) MENITQPTQQSTQAAQRFLIEKFSQEQIGENIVFRVISTTGQIPIRDFSADISQVLKEKRSIKKVWTFGRNPACDYHLGNISRLSNKHFQILLGEDGNLLLNDISTNGTWLNGQKVEKNSYQLLSQGDEITVGVGVESDILSLVIFINDKFKQSLEQNKVDRIRSNLKNTHHHHHH |  |  | ~890 nM and 890 nM | No shift | 1.2 | 0.5 | 2.75 | 2.5 | more thermally stable | 73.75 | 74.9
A12: thermally stable FHA1 variant of D2, mutations C74S, G94D, E129V, N158I (protein) MENITQPTQQSTQATQRFLIEKFSQEQIGENIVFRVISTTGQIPIRDLSADISQVLKEKRSIKKVWTFGRNPASDYHLGNISRLSNKHFQILLDEDGNLLLNDISTNGTWLNGQKVEKNSNQLLSQGDVITVGVGVESDILSLVIFINDKFKQSLEQIKVDRIRSNLKNTHHHHHH |  |  |  |  | 1.25 | 1 | 2 | 2.4 | more thermally stable | 66 | 64
